In paper doi:10.1101/313791 (bioRxiv, 2018):

B1: SCR-mCherry (SCRpro:SCR-mCherry) (natural protein, Arabidopsis thaliana, UniProt Q9M384 1-653, looked up)
chain: MAESGDFNGGQPPPHSPLRTTSSGSSSSNNRGPPPPPPPPLVMVRKRLASEMSSNPDYNNSSRPPRRVSHLLDSNYNTVTPQQPPSLTAAATVSSQPNPPLSVCGFSGLPVFPSDRGGRNVMMSVQPMDQDSSSSSASPTVWVDAIIRDLIHSSTSVSIPQLIQNVRDIIFPCNPNLGALLEYRLRSLMLLDPSSSSDPSPQTFEPLYQISNNPSPPQQQQQHQQQQQQHKPPPPPIQQQERENSSTDAPPQPETVTATVPAVQTNTAEALRERKEEIKRQKQDEEGLHLLTLLLQCAEAVSADNLEEANKLLLEISQLSTPYGTSAQRVAAYFSEAMSARLLNSCLGIYAALPSRWMPQTHSLKMVSAFQVFNGISPLVKFSHFTANQAIQEAFEKEDSVHIIDLDIMQGLQWPGLFHILASRPGGPPHVRLTGLGTSMEALQATGKRLSDFADKLGLPFEFCPLAEKVGNLDTERLNVRKREAVAVHWLQHSLYDVTGSDAHTLWLLQRLAPKVVTVVEQDLSHAGSFLGRFVEAIHYYSALFDSLGASYGEESEERHVVEQQLLSKEIRNVLAVGGPSRSGEVKFESWREKMQQCGFKGISLAGNAATQATLLLGMFPSDGYTLVDDNGTLKLGWKDLSLLTASAWTPRS
B2: HDA19-EGFP (HDA19pro:HDA19-EGFP) (enzyme, Arabidopsis thaliana, UniProt O22446 1-501, looked up)
chain: MDTGGNSLASGPDGVKRKVCYFYDPEVGNYYYGQGHPMKPHRIRMTHALLAHYGLLQHMQVLKPFPARDRDLCRFHADDYVSFLRSITPETQQDQIRQLKRFNVGEDCPVFDGLYSFCQTYAGGSVGGSVKLNHGLCDIAINWAGGLHHAKKCEASGFCYVNDIVLAILELLKQHERVLYVDIDIHHGDGVEEAFYATDRVMTVSFHKFGDYFPGTGHIQDIGYGSGKYYSLNVPLDDGIDDESYHLLFKPIMGKVMEIFRPGAVVLQCGADSLSGDRLGCFNLSIKGHAECVKFMRSFNVPLLLLGGGGYTIRNVARCWCYETGVALGVEVEDKMPEHEYYEYFGPDYTLHVAPSNMENKNSRQMLEEIRNDLLHNLSKLQHAPSVPFQERPPDTETPEVDEDQEDGDKRWDPDSDMDVDDDRKPIPSRVKREAVEPDTKDKDGLKGIMERGKGCEVEVDESGSTKVTGVNPVGVEEASVKMEEEGTNKGGAEQAFPPKT

Key:
[1] = biological target: B2; assay: fluorescence correlation spectroscopy
[2] = biological target: the molecule itself; assay: fluorescence correlation spectroscopy

Binder	percent of the complex in a 1:1 ratio [1] [%]	stoichiometry N [1]	stoichiometry N [2]
B1	98.8	1 ratio (1:1)	
B2			2
